In experiment [1] the target is T1, human interleukin-4 (IL-4) (human, UniProt P05112 25-153, biotinylated in the competition ELISAs).
T1 sequence: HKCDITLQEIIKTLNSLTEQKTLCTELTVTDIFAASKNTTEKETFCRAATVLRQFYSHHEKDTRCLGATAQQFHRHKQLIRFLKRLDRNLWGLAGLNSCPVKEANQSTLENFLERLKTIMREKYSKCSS
Put plainly: cell-based or functional assay.

The target in experiment [2] is T2, human IL-13 (human, UniProt P35225 33-146, biotinylated in the IL-13Rα2 competition ELISA). Put plainly: cell-based or functional assay.
Experiment [3] addresses T1, human interleukin-4 (IL-4). Nature of the experiment: SPR Biacore 3000; antibody captured on anti-human Fc, cytokine 0-50 nM injected, 25 °C, 1:1 Langmuir model. (Surface plasmon resonance follows binding to a sensor surface in real time, without labels.)
Experiment [4] has as its target T2, human IL-13. Described as above.
A further experiment deals with T3, cynomolgus monkey IL-4 (cynomolgus monkey, UniProt P79339 25-153).
T3 construct: Made at Genentech; also called cyno IL-4
T3 sequence: T1 sequence with E26K, V29I, F33L
The experiment is described as above.

For a further experiment, the target named is T4, cynomolgus monkey IL-13 (cynomolgus monkey, UniProt Q5I6E4 19-132 (Macaca thibetana entry), limits assumed).
T4 construct: also called cyno IL-13
T4 chain: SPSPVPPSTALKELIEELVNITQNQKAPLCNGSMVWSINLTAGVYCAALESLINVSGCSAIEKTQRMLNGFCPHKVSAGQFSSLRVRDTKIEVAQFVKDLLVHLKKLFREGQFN
The description is as above.

The target in another experiment is T5, human IL-13 R130Q (human, UniProt P35225 25-146, biotinylated in the IL-13Rα1 competition ELISA).
T5 construct: also called biotinylated IL-13 R130Q
Described as above.

The target in experiment [5] is T1, human interleukin-4 (IL-4). Put plainly: competition ELISA: antibody premixed with biotinylated human IL-4 (5.8 ng/ml), then added to plate-coated human IL-4R; streptavidin-HRP, OD 450 nm. Background: An ELISA detects its analyte on a solid surface through an enzyme-linked reagent.
Experiment [6] has as its target T2, human IL-13. Put plainly: competition ELISA: antibody premixed with biotinylated human IL-13 (0.056 µg/ml), then added to plate-coated human IL-13Rα2-Fc; streptavidin-HRP, OD 450 nm.
Experiment [7] addresses T1, human interleukin-4 (IL-4). Nature of the experiment: SPR (BIAcore A100): IgG captured by anti-human Fcγ antibody, recombinant IL-4 injected, 1:1 Langmuir fit.
Experiment [8] deals with T1, human interleukin-4 (IL-4). Nature of the experiment: SPR BIAcore A100; IgG captured on anti-human Fcγ, recombinant IL-4 injected, 1:1 model.
The target of experiment [9] is T1, human interleukin-4 (IL-4). Nature of the experiment: SPR Biacore.
In experiment [10] the target is T1, human interleukin-4 (IL-4). Nature of the experiment: SPR.
The target in experiment [11] is T1, human interleukin-4 (IL-4). Put plainly: cell-based or functional assay. This is another data set of the same source.

Substitutions are numbered along the chain they refer to. Names and notes keep the numbering of the source.

Consider eleven molecules from US20160207995A1 (Genentech, published 2016).

A word on the Kd: it is the constant that tells how readily two partners part at equilibrium. As a reminder, the koff is a measure of how fast the partners let go of each other. The kon is the second-order rate constant of association.

B1: anti-IL-4/IL-13 IgG1 bispecific antibody (knobs-into-holes) (bispecific antibody)
heavy 1: not shown
light 1: DIQMTQSPSSLSASVGDRVTITCKASQSVINDAAWYQQKPGKAPKLLIYYTSHRYTGVPSRFSGSGSGTDFTLTISSLQPEDFATYYCQQDYTSPWTFGQGTKVEIKRTVAAPSVFIFPPSDEQLKSGTASVVCLLNNFYPREAKVQWKVDNALQSGNSQESVTEQDSKDSTYSLSSTLTLSKADYEKHKVYACEVTHQGLSSPVTKSFNRGEC
heavy 2: not shown
light 2: DIVLTQSPDSLSVSLGERATINCRASKSVDSYGNSFMHWYQQKPGQPPKLLIYLASNLESGVPDRFSGSGSGTDFTLTISSLQAEDVAVYYCQQNNEDPRTFGGGTKVEIKRTVAAPSVFIFPPSDEQLKSGTASVVCLLNNFYPREAKVQWKVDNALQSGNSQESVTEQDSKDSTYSLSSTLTLSKADYEKHKVYACEVTHQGLSSPVTKSFNRGEC
notes: Half antibodies made in E. coli (not glycosylated) and assembled by redox chemistry; Anti-IL-4 arm is the hole, anti-IL-13 arm the knob; also called anti-IL-4/IL-13 IgG1-isotype
On to B1, for which the “IC50 of TF-1 proliferation inhibition assay (IL-4)” value in [1] was found to be 0.06 µg/mL. For the same molecule, the “IC50 of TF-1 proliferation inhibition assay (IL-13)” value with human IL-13 [2] worked out at 0.03 µg/mL. In experiment [3], this molecule returned a Kd of 0.068 nM, a koff of 8.48e-05 s⁻¹ and an on-rate (kon) of 1.34e+06 M⁻¹ s⁻¹. Also, in the experiment with human IL-13 [4], the Kd was 0.023 nM, the koff was 1.7e-05 s⁻¹ and the kon stood at 714000 M⁻¹ s⁻¹.

B2: anti-IL-4/IL-13 IgG4 bispecific antibody (knobs-into-holes, S228P, wild-type R409) (bispecific antibody)
heavy 1: EVQLVESGGGLVQPGGSLRLSCAASGYTFTDYSMHWVRQAPGKGLEWVVWINTETGEPTYADSVKGRFTISLDNSKNTAYLQMNSLRAEDTAVYYCARGGIFYGMDYWGQGTLVTVSSASTKGPSVFPLAPCSRSTSESTAALGCLVKDYFPEPVTVSWNSGALTSGVHTFPAVLQSSGLYSLSSVVTVPSSSLGTKTYTCNVDHKPSNTKVDKRVESKYGPPCPPCPAPEFLGGPSVFLFPPKPKDTLMISRTPEVTCVVVDVSQEDPEVQFNWYVDGVEVHNAKTKPREEQFNSTYRVVSVLTVLHQDWLNGKEYKCKVSNKGLPSSIEKTISKAKGQPREPQVYTLPPSQEEMTKNQVSLSCAVKGFYPSDIAVEWESNGQPENNYKTTPPVLDSDGSFFLVSRLTVDKSRWQEGNVFSCSVMHEALHNHYTQKSLSLSLGK
light 1: B1 light 1
heavy 2: not shown
light 2: B1 light 2
notes: Half antibodies made in E. coli (not glycosylated) and assembled by redox chemistry; also called anti-IL-4/IL-13 bispecific antibody; anti-IL-4/IL-13 IgG4-isotype
On to B2, for which the “IC50 of TF-1 proliferation inhibition assay (IL-4)” value in experiment [1] is 0.05 µg/mL. Moreover, the “IC50 of TF-1 proliferation inhibition assay (IL-13)” value with human IL-13 [2] was found to be 0.03 µg/mL. Besides, the Kd with cynomolgus monkey IL-4 was determined as 0.076 nM; in experiment [3], 0.046 nM; in the experiment with human IL-13 [4] it was 0.056 nM; in the experiment with cynomolgus monkey IL-13 it was 0.048 nM; in the experiment with human IL-13 R130Q it was 0.142 nM. The koff is 0.000151 s⁻¹ in the experiment with cynomolgus monkey IL-4; 0.000133 s⁻¹ in experiment [3]; 3.01e-05 s⁻¹ with human IL-13 [4]; 2.83e-05 s⁻¹ with cynomolgus monkey IL-13; 2.62e-05 s⁻¹ with human IL-13 R130Q. In addition, the kon came out at 2.02e+06 M⁻¹ s⁻¹ with cynomolgus monkey IL-4; 2.87e+06 M⁻¹ s⁻¹ in experiment [3]; 537000 M⁻¹ s⁻¹ with human IL-13 [4]; 608000 M⁻¹ s⁻¹ with cynomolgus monkey IL-13; 184000 M⁻¹ s⁻¹ with human IL-13 R130Q. Also, the “IC50 (read off the curve)” value (in [5]; with human IL-13 [6]) was ~0.2 µg/mL in each case.

B3: HuVHI / HuKI (antibody, V domains shown)
VH: QVQLVQSGAEVKKPGASVKVSCKASGYTFTDYSMHWVRQAPGQGLEWMVWINTETGEPTYADDFKGRVTITRDTSTSTAYLELSSLRSEDTAVYYCARGGIFYGMDYWGQGTLVTVSS
VL: DIQMTQSPSSLSASVGDRVTITCKASQSVINDAAWYQQKPGKAPKLLIYYTSHRYTGVPSRFSGSGSGTDFTLTISSLQPEDFATYYCQQDYTSPWTFGQGTKVEIKR
notes: also called humanized 19C11-VH1 graft/κ1 graft
On to B3, for which the Kd in experiment [7] was 0.024 nM.

B4: humanized 19C11-VH1.FFL/κ3 graft (antibody, V domains shown)
VH: B3 VH with V68F, I70F, R72L
VL: EIVLTQSPATLSLSPGERATLSCKASQSVINDAAWYQQKPGQAPRLLIYYTSHRYTGIPARFSGSGSGTDFTLTISSLEPEDFAVYYCQQDYTSPWTFGQGTKVEIKR
notes: Human IgG expressed in 293 cells; also called 19C11-VH1.FFL with 19C11-κ3 graft
Turning to B4, in experiment [8], the Kd is 0.011 nM.

B5: HuVHIII (FLA) / HuKI (antibody, V domains shown)
VH: EVQLVESGGGLVQPGGSLRLSCAASGYTFTDYSMHWVRQAPGKGLEWVVWINTETGEPTYADDFKGRFTFSLDNSKNTAYLQMNSLRAEDTAVYYCARGGIFYGMDYWGQGTLVTVSS
VL: B3 VL
notes: also called humanized 19C11-VH3.FLA/κ1 graft
As for B5, the Kd in experiment [7] was found to be 0.14 nM.

B6: HuVHIII / HuKI (antibody, V domains shown)
VH: B5 VH with F70I, L72R, A79L
VL: B3 VL
notes: also called humanized 19C11-VH3 graft/κ1 graft
As to B6, the Kd in experiment [7] was found to be 0.084 nM.

B7: humanized antibody 19C11-VH3.LA.SV/κ1 graft (anti-IL-4) (antibody, V domains shown)
VH: B5 VH with D63S, F64V, F70I
VL: B3 VL
notes: Parental (monospecific) humanized anti-IL-4 antibody; also called parental anti-IL-4 antibody; hu19C11
Turning to B7, the binding result in [9] is “binds”.

B8: mu19C11 (clone 19C11, murine anti-human IL-4 monoclonal antibody) (antibody, V domains shown)
VH: QIQLVQSGPELKKPGETVKISCKASGYTFTDYSMHWMKQAPGKGLKWMVWINTETGEPTYADDFKGRFAFSLETSANTAYLKINNLKNEDTATYFCARGGIFYGMDYWGQGTSVTVSS
VL: SIVMTQTPKFLLISAGDRVTITCKASQSVINDAAWYQQKPGQSPRLLIYYTSHRYTGVPDRFTGSGYGTDFTFTISTVQAEDLAVYFCQQDYTSPWTFGGGTKLEIKR
notes: Mouse hybridoma IgG (BALB/c); Tested as hybridoma supernatant IgG or purified IgG
With B8, the Kd in [10] was ≤ 0.01 nM. Further, in experiment [11], the “IC50 for blocking IL-4-induced proliferation of TF-1 cells” value amounted to 0.014 µg/mL.

B9: 19C11 Chimera (antibody, V domains shown)
VH: B8 VH
VL: B8 VL
notes: also called chimeric 19C11 (mouse variable regions with human IgG constant regions)
Regarding B9, the Kd in experiment [7] was < 0.01 nM.

B10: HuVHIII / HuKIII (antibody, V domains shown)
VH: B5 VH with F70I, L72R, A79L
VL: B4 VL
notes: also called humanized 19C11-VH3 graft/κ3 graft
In the case of B10, the Kd in experiment [7] came to 0.026 nM.

B11: humanized 19C11-VH3.FLA/κ3 graft (antibody, V domains shown)
VH: B5 VH
VL: B4 VL
notes: Human IgG expressed in 293 cells; also called 19C11-VH3.FLA with 19C11-κ3 graft
Regarding B11, the Kd in experiment [8] turned out to be 0.011 nM.
